Test results as given in patent US20230226096A1 (Orna Therapeutics, Inc., priority 2020, published 2023).

System: HEK293 cells
Assay type: cell-based, human
Details: luminescence from secreted Gluc in supernatant 24 hours after transfection of HEK293 cells; circular RNA encoding Gluc with the named IRES (UTR truncated to 675 nt)

Molecule | Expression
Rafivirus LPXYC222841 (nucleic acid, listed as Rafivirus sp.) DNA: GTGTCCGGGAAGCGACTCAAGCTTTTGACTGAGTCTCTACACCTTCATCCGTAACATCTTTAAGTTTATGTGCCTATGGACCTCTAGTGCACTGCCATCACCGGGGGTGTATTGGACTGGTTTTTCCACAATCCATTCATCCTGAGGAATTTTGGCTTTGTTACTAGGATGGTCCCACCACACGCTTATCTGTGCCTATTGTGTCAACCATGTTCTTAAGTAGTTGTGCCCGTGGGTGAGTAGATAACCACAACAATCCGATAAAGCATCTCGCAAGGATGTGAGTAATGGAGTGTATGTGCTACAGAGACCCACAACCTGAACCAAGAGAGACACAGTGAGGATTGTAAAGGGGGAACTCTTTGAAAGGGCATGTCCCGCAATTCCTACTGACTGACACCGGGGGTTGGTGTCGGTGGATTTTAGCAAATCCTGTTACTGGGTGATAGCCTTGTGCACTTCACTTGGTTCTTGTATAAGTGCTGTA | 2.22E+05
Breda virus (nucleic acid) DNA: ATCACCTAGTACTTACAAGCGGGTCAAACCGCCCTCCGGAACGGTCATAACCCCCTCCCGAACGTGCGCTTGACGTGACTGGTCTTTCAGTCTAGCTTTCTGAGAAATACTCCGGGGTTGTAACCCACCATTTTGACCTTTGGTCAGTTTGGTAACACTCCAACCAAACAGCATCTGACCCACCTCCAGCTTGCTGCAGGCCATTTGGACCAAACGGGTTCAGATATCTTGTGGCTAAACCTCTGACCCACCTCCAGTTTACTGCAGGCCTTTTGGACTAAACGGGTACAGACTCTTTGTGGTTAGTTTTTAACTACCCACTGTTTAGCCGCCAACCTGATTTTTATTGTTACAAAATTTTGTGTTTACACATTATTTTCTTACGGTTGGCAGTTTGTTTGGTTGTTTGCACAGTTTTTGCTGATACCAATTTTTACTGTGCTTTTGGTGTTTTCGGCTAAGGCTGTTTTTCACATACTTAGTTTGCTTGAAGTAACCTTCACAACATCTGTTTTGTTTTTGGTTTCTAAGGTAAAGAGTTTCAGGAAAAAACATAGGCGCCCATCTTGTGGTGTCTAGTTTTAATTAATCTGGCAAACAAGTATCAAGTCATCGACTCCCTTTGGAGTGAGACTTACGAGTACCAATTCGCCTATTTTGGCCATCCATATAAAA | 1.16E+05
Bovine viral diarrhea virus 3 (nucleic acid) DNA: GTATACGCCCAGTTAGTTCAGGTGGACGTGTACGATTGGGTATCCCAAATTAATAATTTGGTTTAGGGACTAAATCCCCTGGCGAAGGCCGAAACAGGTTAACCATACCTTTAGTAGGACGAGCATAATGGGGGACTAGTGGTGGCAGTGAGCTCCCTGGATCACCGAAGCCCCGAGTACGGGGTAGTCGTCAATGGTTCGACGCATCAAGGAATGCCTCGAGATGCCATGTGGACGAGGGCGTGCCCACGGTGTATCTTAACCCAGGCGGGGGCCGCTTGGGTGAAATAGGGTTGTTATACAAGCCTTTGGGAGTACAGCCTGATAGGGTGTTGCAGAGACCTGCTACACCACTAGTATAAAAACTCTGCTGTACATGGCAC | 2.70E+06
Bovine rhinitis A virus (nucleic acid, Bovine rhinitis A virus) DNA: TTTTGCGGCTCTGCCGCCGTTCGGGTTTTACCTGTTTTCACAGAGCAAAACAGGACCTCTAGTTTCGTGCTTAAACGAGATCATGCTCGAACTAGAACTATAACGCTGGTCACTGGACCCGTGCCGCGCCTTGCGGATCTTTGCGGGAATGGTGGCTAGTGGGCTGTGGAAGTGACTCTAACCACACGCCCCTCAAGTGTGGGAAAACACGAACTGGTGTAGCGACGACGATAGGCCTTGGGACACCCTCTCCAGTGATGGAGACCCAAGGGGCCAAAAGCCACGCCTTGTGCCCTGTCGTTCACAACCCCAGTGCAGTTCGTGCCAGTACCTGCTTTTGGGAAGTGTGCTTTGGACAGCTGAAAACAGTCCTAGTGGGAGACTAAGGATGCCCAGGAGGTACCCGGAGGTAACAAGTGACACTCTGGATCTGACTTGGGGAGAGCGGGTCTGCTTTACAGACGCCACTCTTTAAAAAACTTCTATGTCTCGTCAGGCACCGGAGGCCGGGCCTTTTCCTTTAAAACAATACACTTT | 3.62E+06
Bovine picornavirus isolate TCH6 (nucleic acid) DNA: TTGGATCTGAGCAGGGGCCCCCTTTGGGTTGCTTTACAACTCAACTGGGGGTTAAAAAACGTCTAACCCGACACGCCAGAGGGATCTGGTTTCCTTTTATTTCTTTTACTCACCACTGGATGCAGATTGACGATAAACGTTGTTGTTTGTGACTATTGACTTGATCTGCTTCTACGGGTTTACTTTCACTGTTATACTTCTTGCTTTGTTTGGTGTTCACTGTACTTTGTCTCCTTCTACATTTCACA | 1.21E+05
Bovine nidovirus TCH5 (nucleic acid, listed as Bovine nidovirus) DNA: CACCAATAGATTAGTCAAGCTGTCTATAGGCATAAACTAACCCCCAACCCCATTACCCCGGGGCCAGGTGGGCCGCCGCCTTCGGGCAAACCCGTGCGCTGGTATAATCAAGGTTCACAGCCAGATTCACTGCCGGTTAGCTAGTGGGGCGGTAGCCTGGCAAAACCCGAAGAGGTTGGAAAGGGAACTTCAGGGTAGTTTATCCTAGGCTAGCGTAGCTACAGTTCGGTCAAGATAACCGTCCTGGTGCTAGGGCTAGTAGAGACAGTGGTAACTTGGACAAGGGTCCAGGGCCACTTTAGGGAATACCCTACGGAAGGCTAGGTCCGTAAGGAAGACCCCCGCAGTTGTCCGCGGTTGAGCAGAGCTCCTGCGTAGACAAAAGGCAAAAAGTGGATTACATTCGCCTGCAGGAAAAGGCAAACGTCGTTGGAGTCGGAGCTAAAGTACTGGACGATTGATACCACGCCTGCTGCGGTAGATAAA | 1.17E+05
Bovine hepacivirus (nucleic acid, listed as Hepacivirus sp.) DNA: CCATCGACACTCCAGGCTCACGGATTAAGTTAGGTTCCGCCGAAGCGGGCTAACCAGGCCCCTAGTAGGAGGCGCCTATCCCGTGAGCCCTTTCCCCACGGATTGAGTGGAGCTGGAGCTGGGAAGGACCGAGTACGGTCCAATCGAGAAGAACCCTGATGAACATTCCAGGCCTCTTCGGTAGATTTGGATATATCCACCAGTGAAGGCGGGGTCGTGGGTACAGGCCCCCTAGTCCACACAGCCTGATAGGGTCCTGCCGCAGGATCCGTGGGTGCGGCTGTACATGTACC | 1.89E+05
Botrytis cinerea mitovirus 4 RdRp (nucleic acid, listed as Mitovirus sp.) DNA: GCCCCGCCGACCTTCCTATTTATTTCTAAATAGGAAGGTCCCGACTAGTCGGATAATTCGGTTTAACGAATTATGGTTAGATCTATTAAAGTTAAAATAGATTGAATTTCTTTCTCATCCTCCTTATTCCTATACTTTGGGAGTAAATGACAAATGTCTATCCTCAAACCGAAATGGCTTAAGTGATGAATTTGAAAGAAAGGTAGGTTTTAAGAATATAAGGCATCAATATATTATACCCTTGAATGTTAAGTGACCACGGCGTGACGATTAGGGCTATCTTAGGATAGACAGCCATCTAACGCGACAGCAGTGGAAATCAGCTTAGCATCTCAAGATCATGTATAATATATACATAACCTTACAATTATAAAACCAAACCAAAACACACTATAATTTTATATAAATTATAGAAGTATCGGACCTGGACGGTACCTACTATTAACTGATAGTAGCCAAATGCAGGAAGCTC | 9.68E+04
Botrytis cinerea mitovirus 2 RdRp (nucleic acid, listed as Mitovirus sp.) DNA: GGAACTTTTCAGTTCCAGAAGTGGCTTTATTAAGCCTTCAAAGTTTACACTTTGAACCTGCGATTAATTCCCCATAGTGACTCTTGTTACTGTGAATTAGGAATAGTTGTAGTTCAACTTCTAATGAGGTGAACAATATAATAACTCATCTTATTAACCCTATACGTAGACAATTGTCCAAAGAGACAGTTGGAATTCTGCCAATCTGGAATGTTTGGTACGCGTAGAAGATAATAAGAGACCCTCTATTCCCCTGCCTCATGACTAAGTCATGGCCCGGGGTGTAATAGAGATACTTTTATATATTATACAATC | 8.73E+04
